Measurements: PMC9321335, “Palmitic Acid-Conjugated Radiopharmaceutical for Integrin αvβ3-Targeted Radionuclide Therapy” (Pharmaceutics, 2022)

Experiments:
[1] = in vivo; design: species or system C57BL/6 mice; conditions: C57BL/6, mouse, 37 MBq, total radioactivity
Protocol: SPECT/CT imaging was performed using a small animal SPECT/CT imaging system (Mediso Inc., Budapest, Hungary). Each mouse bearing MC38 tumors was injected with a radiotracer at a radioactivity of 37 MBq/1 mCi. The mice were imaged at 1, 4, 12, 24, and 72 h after injection of ^177Lu-Palm-3PRGD2 (37 MBq, 2.7 nmol), and the mice in the blocking study were imaged at 1 h p.i. […] Pinhole SPECT images (peak, 56.1, 112.9, and 208.4 keV; 20% width; frame time, 25 s) were acquired, and CT images were subsequently acquired (50 kV; 0.67 mA; rotation, 210°; exposure time, 300 ms). The raw data were reconstructed in a whole-body region. The SPECT and CT images were then fused using Nucline v 2.01 (Mediso Inc., Budapest, Hungary). The maximum intensity projection (MIP) was determined for whole-body imaging from the posterior view.

[2] = in vivo; conditions: C57BL/6, mouse, total radioactivity; for tissue to tissue ratio at 1 h / tissue to tissue ratio at 4 h / tissue to tissue ratio at 12 h / tissue to tissue ratio at 24 h / tissue to tissue ratio at 72 h: Tumor-to-tissue ratio
Protocol: (§1) Mice bearing MC38 xenografts were randomly divided into 10 groups (n = 4). The mice in five groups were administered 0.74 MBq/20 µCi of ^177Lu-Palm-3PRGD2 and sacrificed at 1, 4, 12, 24, and 72 h p.i. The mice on one group was injected with 0.74 MBq/20 µCi of ^177Lu-Palm-3PRGD2 and 500 μg (242 nmol) 3PRGD2 as a blocking agent and sacrificed at 1 h p.i. […] Tumors and major organs were harvested, weighed and measured for radioactivity using a γ-counter. The organ uptake was calculated as the percentage injected activity per gram (%IA/g). The effective absorbed dose in humans estimated from mouse biodistribution data by using a dedicated software (OLINDA 1.0).

[3] = tested on: MC38 tumor-bearing mice; assay: in vivo; conditions: mouse
Protocol: as §1

## CCCCCCCCCCCCCCCC(=O)N[C@@H](CCC(=O)NCCCC[C@H](NC(=O)CN1CCN(CC(=O)O)CCN(CC(=O)O)CCN(CC(=O)O)CC1)C(=O)NCCOCCOCCOCCOCCC(=O)N[C@@H](CCC(=O)NCCOCCOCCOCCOCCC(=O)NCCCC[C@@H]1NC(=O)[C@@H](Cc2ccccc2)NC(=O)[C@H](CC(=O)O)NC(=O)CNC(=O)[C@H](CCCNC(=N)N)NC1=O)C(=O)NCCOCCOCCOCCOCCC(=O)NCCCC[C@@H]1NC(=O)[C@@H](Cc2ccccc2)NC(=O)[C@H](CC(=O)O)NC(=O)CNC(=O)[C@H](CCCNC(=N)N)NC1=O)C(=O)O [^177Lu-Palm-3PRGD2, [^177Lu]Lu-DOTA-Palm-3PRGD2, metal not drawn]
[1]
  tissue uptake per volume at 1 h: 15 ± 0.13 %ID/mL
[2]; 0.74 MBq, Blood uptake
  tissue uptake at 1 h: 9.73 %ID/g
  tissue uptake at 4 h: 4.11 %ID/g
  tissue uptake at 12 h: 0.58 %ID/g
  tissue uptake at 24 h: 0.24 %ID/g
  tissue uptake at 72 h: 0.21 %ID/g
[2]; 0.74 MBq, Bone uptake
  tissue uptake at 1 h: 3.39 %ID/g
  tissue uptake at 4 h: 4.55 %ID/g
  tissue uptake at 12 h: 3.05 %ID/g
  tissue uptake at 24 h: 3.13 %ID/g
  tissue uptake at 72 h: 1.97 %ID/g
[2]; 0.74 MBq, Brain uptake
  tissue uptake at 1 h: 0.52 %ID/g
  tissue uptake at 4 h: 0.55 %ID/g
  tissue uptake at 12 h: 0.43 %ID/g
  tissue uptake at 24 h: 0.4 %ID/g
  tissue uptake at 72 h: 0.29 %ID/g
[2]; 0.74 MBq, Heart uptake
  tissue uptake at 1 h: 5.59 %ID/g
  tissue uptake at 4 h: 4.93 %ID/g
  tissue uptake at 12 h: 3.2 %ID/g
  tissue uptake at 24 h: 2.7 %ID/g
  tissue uptake at 72 h: 1.53 %ID/g
[2]; 0.74 MBq, Intestinal uptake
  tissue uptake at 1 h: 20.6 ± 1.97 %ID/g
  tissue uptake at 72 h: 12.8 ± 1.06 %ID/g
[2]; 0.74 MBq, Intestine uptake
  tissue uptake at 4 h: 17.6 %ID/g
  tissue uptake at 12 h: 21.1 %ID/g
  tissue uptake at 24 h: 17.4 %ID/g
[2]; 0.74 MBq, Kidney uptake
  tissue uptake at 1 h: 17.6 %ID/g
  tissue uptake at 4 h: 20.1 ± 0.6 %ID/g
  tissue uptake at 12 h: 19.3 %ID/g
  tissue uptake at 24 h: 17 %ID/g
  tissue uptake at 72 h: 10.6 ± 1.11 %ID/g
[2]; 0.74 MBq, Liver uptake
  tissue uptake at 1 h: 13.7 %ID/g
  tissue uptake at 4 h: 22.4 ± 2.55 %ID/g
  tissue uptake at 12 h: 22.1 %ID/g
  tissue uptake at 24 h: 13.7 %ID/g
  tissue uptake at 72 h: 6.73 ± 1.18 %ID/g
[2]; 0.74 MBq, Lung uptake
  tissue uptake at 1 h: 7.79 %ID/g
  tissue uptake at 4 h: 7.85 %ID/g
  tissue uptake at 12 h: 5.2 %ID/g
  tissue uptake at 24 h: 3.53 %ID/g
  tissue uptake at 72 h: 1.55 %ID/g
[2]; 0.74 MBq, Muscle uptake
  tissue uptake at 1 h: 1.96 %ID/g
  tissue uptake at 4 h: 1.7 %ID/g
  tissue uptake at 12 h: 1.24 %ID/g
  tissue uptake at 24 h: 0.96 %ID/g
  tissue uptake at 72 h: 0.7 %ID/g
[2]; 0.74 MBq, Spleen uptake
  tissue uptake at 1 h: 7.35 %ID/g
  tissue uptake at 4 h: 12.4 %ID/g
  tissue uptake at 12 h: 18.4 %ID/g
  tissue uptake at 24 h: 14.9 %ID/g
  tissue uptake at 72 h: 8.38 %ID/g
[2]; 0.74 MBq, Stomach uptake
  tissue uptake at 1 h: 5.73 %ID/g
  tissue uptake at 4 h: 7.22 %ID/g
  tissue uptake at 12 h: 6.07 %ID/g
  tissue uptake at 24 h: 3.7 %ID/g
  tissue uptake at 72 h: 1.38 %ID/g
[2]; 0.74 MBq, Tumor uptake
  tissue uptake at 1 h: 14.4 ± 2.53 %ID/g
  tissue uptake at 4 h: 26.3 ± 6.34 %ID/g
  tissue uptake at 12 h: 22.9 ± 4.2 %ID/g
  tissue uptake at 24 h: 17.2 ± 3.3 %ID/g
  tissue uptake at 72 h: 5.83 ± 1.27 %ID/g
[2]; 0.74 MBq, Blood
  tissue to tissue ratio at 1 h: 1.47
  tissue to tissue ratio at 4 h: 7.28
  tissue to tissue ratio at 12 h: 44.9
  tissue to tissue ratio at 24 h: 73.2
  tissue to tissue ratio at 72 h: 28.2
[2]; 0.74 MBq, Bone
  tissue to tissue ratio at 1 h: 4.3
  tissue to tissue ratio at 4 h: 6.66
  tissue to tissue ratio at 12 h: 7.14
  tissue to tissue ratio at 24 h: 5.61
  tissue to tissue ratio at 72 h: 2.96
[2]; 0.74 MBq, Brain
  tissue to tissue ratio at 1 h: 27.9
  tissue to tissue ratio at 4 h: 55.3
  tissue to tissue ratio at 12 h: 52.5
  tissue to tissue ratio at 24 h: 42.5
  tissue to tissue ratio at 72 h: 19.9
[2]; 0.74 MBq, Heart
  tissue to tissue ratio at 1 h: 2.59
  tissue to tissue ratio at 4 h: 6.12
  tissue to tissue ratio at 12 h: 7.11
  tissue to tissue ratio at 24 h: 6.41
  tissue to tissue ratio at 72 h: 3.86
[2]; 0.74 MBq, Intestine
  tissue to tissue ratio at 1 h: 0.77
  tissue to tissue ratio at 4 h: 1.62
  tissue to tissue ratio at 12 h: 1.06
  tissue to tissue ratio at 24 h: 1
  tissue to tissue ratio at 72 h: 0.45
[2]; 0.74 MBq, Kidney
  tissue to tissue ratio at 1 h: 0.82
  tissue to tissue ratio at 4 h: 1.42
  tissue to tissue ratio at 12 h: 1.2
  tissue to tissue ratio at 24 h: 1.01
  tissue to tissue ratio at 72 h: 0.56
[2]; 0.74 MBq, Liver
  tissue to tissue ratio at 1 h: 1.06
  tissue to tissue ratio at 4 h: 1.02
  tissue to tissue ratio at 12 h: 1.05
  tissue to tissue ratio at 24 h: 1.3
  tissue to tissue ratio at 72 h: 0.89
[2]; 0.74 MBq, Lung
  tissue to tissue ratio at 1 h: 1.87
  tissue to tissue ratio at 4 h: 3.98
  tissue to tissue ratio at 12 h: 3.86
  tissue to tissue ratio at 24 h: 4.89
  tissue to tissue ratio at 72 h: 3.78
[2]; 0.74 MBq, Muscle
  tissue to tissue ratio at 1 h: 7.33
  tissue to tissue ratio at 4 h: 17.5
  tissue to tissue ratio at 12 h: 18
  tissue to tissue ratio at 24 h: 17.9
  tissue to tissue ratio at 72 h: 8.33
[2]; 0.74 MBq, Spleen
  tissue to tissue ratio at 1 h: 2.02
  tissue to tissue ratio at 4 h: 2.56
  tissue to tissue ratio at 12 h: 1.4
  tissue to tissue ratio at 24 h: 1.35
  tissue to tissue ratio at 72 h: 0.7
[2]; 0.74 MBq, Stomach
  tissue to tissue ratio at 1 h: 2.57
  tissue to tissue ratio at 4 h: 4.06
  tissue to tissue ratio at 12 h: 3.84
  tissue to tissue ratio at 24 h: 4.74
  tissue to tissue ratio at 72 h: 4.25
[2]; Blood
  tissue to tissue ratio at 1 h: 0.25
[2]; Bone
  tissue to tissue ratio at 1 h: 2.51
[2]; Brain
  tissue to tissue ratio at 1 h: 14.8
[2]; Heart
  tissue to tissue ratio at 1 h: 1.32
[2]; Intestine
  tissue to tissue ratio at 1 h: 0.96
[2]; Kidney
  tissue to tissue ratio at 1 h: 0.69
[2]; Liver
  tissue to tissue ratio at 1 h: 1.19
[2]; Lung
  tissue to tissue ratio at 1 h: 0.71
[2]; Muscle
  tissue to tissue ratio at 1 h: 3.53
[2]; Spleen
  tissue to tissue ratio at 1 h: 1.61
[2]; Stomach
  tissue to tissue ratio at 1 h: 1.64
[3]
  AUC0h→72h in MC38 tumor: 1031.0 ± 97.25 % IA/g·h
  AUC0h→72h in blood: 104.5 ± 7.98 % IA/g·h
  AUC0h→72h in kidney: 1087.0 ± 62.73 % IA/g·h
  AUC0h→72h in liver: 915.6 ± 74.74 % IA/g·h
